This note sets out measurements from PMC8126837.

The target in the assay is human angiotensin-converting enzyme 2 (ACE2) (human) (UniProt Q9BYF1). Put plainly: FRET or BRET. A general note: BRET reads energy transfer from a luciferase to a nearby fluorophore.
Sequence of human angiotensin-converting enzyme 2 (ACE2) (human) (Q9BYF1 18-740): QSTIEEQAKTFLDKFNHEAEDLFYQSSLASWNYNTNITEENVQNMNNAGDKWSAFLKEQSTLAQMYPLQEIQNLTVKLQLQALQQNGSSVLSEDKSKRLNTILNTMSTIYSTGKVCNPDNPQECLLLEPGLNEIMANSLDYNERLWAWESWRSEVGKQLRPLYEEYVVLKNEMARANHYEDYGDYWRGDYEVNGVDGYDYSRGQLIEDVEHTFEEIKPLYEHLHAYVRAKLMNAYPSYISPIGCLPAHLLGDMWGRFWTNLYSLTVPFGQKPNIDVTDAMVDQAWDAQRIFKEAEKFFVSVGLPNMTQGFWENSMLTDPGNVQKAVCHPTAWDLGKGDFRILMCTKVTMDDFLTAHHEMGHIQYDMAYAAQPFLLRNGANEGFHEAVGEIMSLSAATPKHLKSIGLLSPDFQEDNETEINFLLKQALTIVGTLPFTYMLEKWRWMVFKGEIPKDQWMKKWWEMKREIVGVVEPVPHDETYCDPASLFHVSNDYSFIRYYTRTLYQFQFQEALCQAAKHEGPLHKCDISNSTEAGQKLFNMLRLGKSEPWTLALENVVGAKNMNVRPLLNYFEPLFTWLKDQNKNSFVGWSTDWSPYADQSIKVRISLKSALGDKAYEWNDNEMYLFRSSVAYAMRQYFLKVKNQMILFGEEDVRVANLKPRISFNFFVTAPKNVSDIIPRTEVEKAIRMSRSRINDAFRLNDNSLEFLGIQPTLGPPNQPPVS

In turn, “SARS-CoV receptor-binding domain (RBD) (from UniProt P59594) (domain or fragment)” yielded a reduction in complex formation (FRET of SARS-CoV-2 RBD with ACE2) of 70%.
